From US20100068766A1 (WASEDA UNIVERSITY, published 2010)

B1: human Ev1 protein (NCBI accession No. AAF21709) (other, UniProt Q9UI08-2 1-418, looked up)
chain: MATSEQSICQARASVMVYDDTSKKWVPIKPGQQGFSRINIYHNTASNTFRVVGVKLQDQQVVINYSIVKGLKYNQATPTFHQWRDARQVYGLNFASKEEATTFSNAMLFALNIMNSQEGGPSSQRQVQNGPSPDEMDIQRRQVMEQHQQQRQESLERRTSATGPILPPGHPSSAASAPVSCSGPPPPPPPPVPPPPTGATPPPPPPLPAGGAQGSSHDESSMSGLAAAIAGAKLRRVQRPEDASGGSSPSGTSKSDANRASSGGGGGGLMEEMNKLLAKRRKAASQSDKPAEKKEDESQMEDPSTSPSPGTRAASQPPNSSEAGRKPWERSNSVEKPVSSILSRTPSVAKSPEAKSPLQSQPHSRMKPAGSVNDMALDAFDLDRMKQEILEEVVRELHKVKEEIIDAIRQELSGISTT
notes: range 1-418; His tag removed by thrombin; By gel filtration it eluted at approximately 600 kDa (approximately 13-mer multimer); In the pull-down it was either coupled covalently to Affi-Gel 10 beads or free in solution; also called entire-length Ev1 protein; His-Ev1 (before the tag was removed)

Experiments:
[1] = biological target: the molecule itself; test: inferred from the pull-down on Rad51B-bound beads; gel filtration (approximately 600 kDa)
[2] = biological target: B1; test: pull-down, Ev1 coupled to Affi-Gel 10 beads, SDS-PAGE, Coomassie stain
Procedure: Thereafter, the obtained mixture was incubated at 4° C. overnight. The Affi-Gel 10-Ev1 beads were washed 3 times with 500 μl of washing buffer 1 (20 mM potassium phosphate (pH 8.5), 30% glycerol, 700 mM NaCl, 5 mM 2-mercaptoethanol, and 0.05% Triton X-100). The Affi-Gel 10-Rad51B beads were washed 3 times with washing buffer 2 (20 mM HEPES-NaOH (pH 7.3), 30% glycerol, 90 mM NaCl, 2 mM 2-mercaptoethanol, 0.1% Triton X-100, 2 mM ammonium sulfate, and 0.1 mM EDTA). Thereafter, a 50% suspension of such Affi-Gel 10-protein was prepared, and it was then preserved at 4° C.
In order to carry out a binding assay, an Affi-Gel 10-protein suspension (30 μl) was incubated with 10 μg of an Ev1 or Rad51B protein at room temperature for 150 minutes. Affi-Gel 10-Ev1 beads were washed 4 times with 100 μl of buffer 1 (20 mM potassium phosphate (pH 8.5), 30% glycerol, 700 mM NaCl, 5 mM 2-mercaptoethanol, and 0.3% Triton X-100). Affi-Gel 10-Rad51B beads were washed 4 times with 100 μl of buffer 2 (20 mM HEPES-NaOH (pH 7.3), 30% glycerol, 90 mM NaCl, 2 mM 2-mercaptoethanol, 2 mM ammonium sulfate, 0.1 mM EDTA, and 0.35% Triton X-100). An SDS-PAGE sample treatment buffer (2×) was directly mixed with the washed beads, and the obtained mixture was then subjected to a heat treatment at 100° C. for 2 minutes. […]

stoichiometric ratio [2]	Binder	binding result [1]
	B1	binds
1 Rad51B:Ev1 (1:1)	Rad51B protein (other, UniProt O15315-1 1-350, looked up, In the pull-down it was either coupled to Affi-Gel 10 beads or free in solution) MGSKKLKRVGLSQELCDRLSRHQILTCQDFLCLSPLELMKVTGLSYRGVHELLCMVSRACAPKMQTAYGIKAQRSADFSPAFLSTTLSALDEALHGGVACGSLTEITGPPGCGKTQFCIMMSILATLPTNMGGLEGAVVYIDTESAFSAERLVEIAESRFPRYFNTEEKLLLTSSKVHLYRELTCDEVLQRIESLEEEIISKGIKLVILDSVASVVRKEFDAQLQGNLKERNKFLAREASSLKYLAEEFSIPVILTNQITTHLSGALASQADLVSPADDLSLSEGTSGSSCVIAALGNTWSHSVNTRLILQYLDSERRQILIAKSPLAPFTSFVYTIKEEGLVLQAYGNS	
